Experimental data from the supplement of paper PMC5998384.

How the values were obtained:
[1] = tested on: HeLa Kyoto; assay: solubility in G1/S (NP-40 vs SDS abundance) (log2 ratio); higher = more soluble; conditions: cell cycle stage: G1/S
[2] = tested on: HeLa Kyoto; assay: solubility change mitosis vs G1/S (difference of NP-40 vs SDS log2 ratios) (log2 ratio difference); higher = more soluble in mitosis
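Throughout, for solubility change mitosis vs G1/S (difference of NP-40 vs SDS log2 ratios): synchronized HeLa Kyoto cells (double thymidine block for G1/S, nocodazole release for mitosis), protein amounts in NP-40 versus SDS lysates quantified by mass spectrometry, three biological replicates.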
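Throughout, for solubility in G1/S (NP-40 vs SDS abundance): HeLa Kyoto cells arrested at G1/S by double thymidine block, proteins quantified by TMT10plex mass spectrometry in mild NP-40 versus SDS extracts, three biological replicates.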

| Sequence | solubility in G1/S (log2) [1] | solubility change mitosis (log2) [2] |
| --- | --- | --- |
| MGDPGSEIIESVPPAGPEASESTTDENEDDIQFVSEGPLRPVLEYIDLVSSDDEEPSTSYTDENIKRKDHIDYQKDKVALTLARLARHVEVEKQQKEEKNRAFREKIDFQHAHGLQELEFIRGHSDTEAARLCVDQWLKMPGLKTGTINCGTKSSFRRGGHTWVSGKPILCPIMHCNKEFDNGHLLLGHLKRFDHSPCDPTITLHGPFFSSFACVVCYKKFVTQQQYRDHLFDKEATDDGHNNNLLPQIIQCFACPNCFLLFSRKEECSKHMSGKNHFHQSFKLGDNKGIAHPISFPSFAKKLLISLCKDVPFQVKCVACHKTLRSHMELTAHFRVHCRNAGPVAVAEKSITQVAEKFILRGYCPDCNQVFVDETSTQNHKQNSGHKVRVINSVEESVLLYCHSSEGNKDPSSDLHLLLDQSKFSSLKRTMSIKESSSLECIAIPKKKMNLKDKSHEGVACVQKEKSVVKTWFCECNQRFPSEDAVEKHVFSANTMGYKCVVCGKVCDDSGVIRLHMSRIHGGAHLNNFLFWCRTCKKELTRKDTIMAHVTEFHNGHRYFYEMDEVEGETLPSSSTTLDNLTANKPSSAITVIDHSPANSSPRGKWQCRICEDMFDSQEYVKQHCMSLASHKFHRYSCAHCRKPFHKIETLYRHCQDEHDNEIKIKYFCGLCDLIFNVEEAFLSHYEEHHSIDYVFVSEKTETSIKTEDDFPVIETSNQLTCGCRESYICKVNRKEDYSRCLQIMLDKGKLWFRCSLCSATAQNLTDMNTHIHQVHKEKSDEEEQQYVIKCGTCTKAFHDPESAQQHFHRKHCFLQKPSVAHFGSEKSNLYKFTASASHTERKLKQAINYSKSLDMEKGVENDLSYQNIEEEIVELPDLDYLRTMTHIVFVDFDNWSNFFGHLPGHLNQGTFIWGFQGGNTNWKPPLNCKIYNYLNRIGCFFLHPRCSKRKDAADFAICMHAGRLDEQLPKQIPFTILSGDQGFLELENQFKKTQRPAHILNPHHLEGDMMCALLNSISDTTKECDSDDNMGAKNTSIGEEFISTEDVELEEAIRRSLEEM [ZNF451] | -0.657 | -0.197 |
| MGDWMTVTDPGLSSESKTISQYTSETKMSPSSLYSQQVLCSSIPLSKNVHSFFSAFCTEDNIEQSISYLDQELTTFGFPSLYEESKGKETKRELNIVAVLNCMNELLVLQRKNLLAQENVETQNLKLGSDMDHLQSCYSKLKEQLETSRREMIGLQERDRQLQCKNRNLHQLLKNEKDEVQKLQNIIASRATQYNHDMKRKEREYNKLKERLHQLVMNKKDKKIAMDILNYVGRADGKRGSWRTGKTEARNEDEMYKILLNDYEYRQKQILMENAELKKVLQQMKKEMISLLSPQKKKPRERVDDSTGTVISDVEEDAGELSRESMWDLSCETVREQLTNSIRKQWRILKSHVEKLDNQVSKVHLEGFNDEDVISRQDHEQETEKLELEIQQCKEMIKTQQQLLQQQLATAYDDDTTSLLRDCYLLEEKERLKEEWSLFKEQKKNFERERRSFTEAAIRLGLERKAFEEERASWLKQQFLNMTTFDHQNSENVKLFSAFSGSSDWDNLIVHSRQPQKKPHSVSNGSPVCMSKLTKSLPASPSTSDFCQTRSCISEHSSINVLNITAEEIKPNQVGGECTNQKWSVASRPGSQEGCYSGCSLSYTNSHVEKDDLP [SSX2IP] | -0.387 | 0.187 |
| MGLKAAQKTLFPLRSIDDVVRLFAAELGREEPDLVLLSLVLGFVEHFLAVNRVIPTNVPELTFQPSPAPDPPGGLTYFPVADLSIIAALYARFTAQIRGAVDLSLYPREGGVSSRELVKKVSDVIWNSLSRSYFKDRAHIQSLFSFITGTKLDSSGVAFAVVGACQALGLRDVHLALSEDHAWVVFGPNGEQTAEVTWHGKGNEDRRGQTVNAGVAERSWLYLKGSYMRCDRKMEVAFMVCAINPSIDLHTDSLELLQLQQKLLWLLYDLGHLERYPMALGNLADLEELEPTPGRPDPLTLYHKGIASAKTYYRDEHIYPYMYLAGYHCRNRNVREALQAWADTATVIQDYNYCREDEEIYKEFFEVANDVIPNLLKEAASLLEAGEERPGEQSQGTQSQGSALQDPECFAHLLRFYDGICKWEEGSPTPVLHVGWATFLVQSLGRFEGQVRQKVRIVSREAEAAEAEEPWGEEAREGRRRGPRRESKPEEPPPPKKPALDKGLGTGQGAVSGPPRKPPGTVAGTARGPEGGSTAQVPAPTASPPPEGPVLTFQSEKMKGMKELLVATKINSSAIKLQLTAQSQVQMKKQKVSTPSDYTLSFLKRQRKGL [MEN1] | -0.472 | 0.197 |
| MGNIFGNLLKSLIGKKEMRILMVGLDAAGKTTILYKLKLGEIVTTIPTIGFNVETVEYKNISFTVWDVGGQDKIRPLWRHYFQNTQGLIFVVDSNDRERVNEAREELMRMLAEDELRDAVLLVFANKQDLPNAMNAAEITDKLGLHSLRHRNWYIQATCATSGDGLYEGLDWLANQLKNKK [ARF3] | -0.169 | -0.299 |
